# Earlier results in PMC3515962.
# Target: IL-2 receptor (Mus musculus) (UniProt P01590)
# Assay: radioligand binding
# Sequence of UniProt P01590 (P01590 22-236, chain 1 of 3): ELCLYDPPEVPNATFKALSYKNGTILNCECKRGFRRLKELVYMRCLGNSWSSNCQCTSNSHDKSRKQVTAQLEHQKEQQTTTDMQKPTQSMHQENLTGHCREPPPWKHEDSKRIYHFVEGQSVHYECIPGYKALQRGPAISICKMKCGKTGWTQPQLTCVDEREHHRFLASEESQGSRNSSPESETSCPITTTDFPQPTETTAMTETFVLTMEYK
# Sequence of UniProt P01590 (P16297 27-240, chain 2 of 3, further chain): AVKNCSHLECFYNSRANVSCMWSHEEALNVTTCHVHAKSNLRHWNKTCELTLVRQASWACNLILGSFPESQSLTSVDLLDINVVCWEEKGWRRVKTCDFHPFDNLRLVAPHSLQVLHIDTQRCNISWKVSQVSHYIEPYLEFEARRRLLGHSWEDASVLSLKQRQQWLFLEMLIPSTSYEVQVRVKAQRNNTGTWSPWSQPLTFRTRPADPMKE
# Sequence of UniProt P01590 (P34902 23-263, chain 3 of 3, further chain): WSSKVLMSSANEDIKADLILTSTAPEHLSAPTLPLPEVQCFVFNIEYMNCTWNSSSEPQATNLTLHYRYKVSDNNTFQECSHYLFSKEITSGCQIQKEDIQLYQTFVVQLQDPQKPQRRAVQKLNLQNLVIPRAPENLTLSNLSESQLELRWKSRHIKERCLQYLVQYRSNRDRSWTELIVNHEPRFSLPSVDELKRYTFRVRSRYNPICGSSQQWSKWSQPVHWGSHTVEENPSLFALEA
substance,measurement,value
TCGF (IL-2) (from UniProt P60568),Kd,20 pM
